Source: patent US20060040881

System: Coagulation factor IX/IXa (Macaca fascicularis)
Experiment: inhibition
Settings: guggaCUaUaCCgCgUaaUgCuGcCUccacT; lower case 2'-OMe, upper case C/U 2'-F, upper case A/G 2'-OH, 3' idT; concentration inhibiting about 90% of plasma FIX activity (APTT 1.6-fold); >95% at 10-12 ug/mL; cynomolgus plasma; text cites Apt39 as SEQ ID NO:88

GUGGACUAUACCGCGUAAUGCUGCCUCCAC [Apt39]
activity: 6 µg/mL
